Measurements reported in patent publication US20100324271A1 (TOKAI UNIVERSITY EDUCATIONAL SYSTEM, published 2010).

Molecular target: T1, fetuin (UniProt P12763 19-359, carrying complex type and O-linked oligosaccharides)
T1 construct: Natural glycoprotein, separated by SDS-PAGE and blotted onto PVDF; also called fetuin carrying complex type and O-linked oligosaccharides
T1 sequence (looked up): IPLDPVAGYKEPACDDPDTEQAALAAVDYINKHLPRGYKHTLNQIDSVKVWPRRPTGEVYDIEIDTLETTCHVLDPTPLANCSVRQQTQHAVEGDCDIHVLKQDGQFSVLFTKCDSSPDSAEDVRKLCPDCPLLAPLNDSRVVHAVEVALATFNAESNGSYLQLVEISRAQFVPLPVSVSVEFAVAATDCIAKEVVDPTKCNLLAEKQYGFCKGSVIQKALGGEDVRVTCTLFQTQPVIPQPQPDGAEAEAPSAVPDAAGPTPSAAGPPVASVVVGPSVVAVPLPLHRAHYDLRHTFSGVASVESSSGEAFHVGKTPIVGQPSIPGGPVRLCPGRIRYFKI
Test: Western blot, 5 µg/lane on PVDF, phage detected with HRP-labeled anti-M13 antibody
Description: Fetuin, asialo-fetuin, RNase A, and RNase B (5 μg/lane) were separated by SDS-polyacrylamide gel electrophoresis (10% gel) and blotted onto a PVDF membrane. The SDS-PAGE gel was stained with Coomassie Brilliant Blue. The reactivity of phage antibody to natural glycoproteins was examined by Western blotting with M3-7 phage antibody followed by HRP-labeled anti-M13 phage antibody as described above.

B1: M3-7 phage antibody (scFv, V domains shown)
VH: QVQLQQSGPGLVKASETLSLTCAVSGYSISSGYYWGWIRQPPGKGLEWIGNIYHSGNTYYNPSLKSRVTISRDTSKNHFSLKLKSVTAADTAVYYCARADPGYMIFNWFDPWGQGTLVTVSS
VL: NFMLTQPPSASGTPGQRVTISCSGSSSNIGNNDVYWYQQFPGTAPKLLIYRNNQRPSGVPDRFSGSKSGTSASLAISGLRSEDEADYYCAAWDDSLIFGGGTKLTVLG
notes: also called Man3-specific scFv-displaying phage antibody
binding result: no binding
